The results in this text go back to US20240327815A1 (Zymeworks, published 2024).

What is called IC50 is the point on the concentration scale where inhibition reaches its midpoint. A lower IC50 goes with greater potency in that assay.

The target in test [1] is WT SARS-CoV-2 spike protein, plate-coated (MSD V-Plex) (SARS-CoV-2, UniProt P0DTC2 14-1208). Description: MSD competition vs labelled ACE2.
Test [2] has as its target T1, full length wild type SARS-CoV-2 spike glycoprotein on pseudotyped lentivirus (SARS-CoV-2, UniProt P0DTC2 14-1273). Description: cell-based or functional assay.
In test [3] the target is T1, full length wild type SARS-CoV-2 spike …. Description: cell-based or functional assay. This is another data set of the same source.

B1: Etesevimab (antibody, V domains shown)
VH: EVQLVESGGGLVQPGGSLRLSCAASGFTVSSNYMSWVRQAPGKGLEWVSVIYSGGSTFYADSVKGRFTISRDNSMNTLFLQMNSLRAEDTAVYYCARVLPMYGDYLDYWGQGTLVTVSS
VL: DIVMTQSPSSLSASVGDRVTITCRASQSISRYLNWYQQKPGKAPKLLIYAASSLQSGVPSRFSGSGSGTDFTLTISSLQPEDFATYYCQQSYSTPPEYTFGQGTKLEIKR
With B1, the IC50 in test [1] was 0.51 nM.

B2: Bamlanivimab (antibody, V domains shown)
VH: QVQLVQSGAEVKKPGSSVKVSCKASGGTFSNYAISWVRQAPGQGLEWMGRIIPILGIANYAQKFQGRVTITADKSTSTAYMELSSLRSEDTAVYYCARGYYEARHYYYYYAMDVWGQGTAVTVSS
VL: not shown
With B2, in test [2], the “Pseudovirus Neutralization (IC50, nM)” value is 2.29 nM. For the same molecule, the “Bmax (% inhibition)” value in test [3] was 100%.

B3: REGN10933 (Casirivimab) (antibody, V domains shown)
VH: QVQLVESGGGLVKPGGSLRLSCAASGFTFSDYYMSWIRQAPGKGLEWVSYITYSGSTIYYADSVKGRFTISRDNAKSSLYLQMNSLRAEDTAVYYCARDRGTTMVPFDYWGQGTLVTVSS
VL: DIQMTQSPSSLSASVGDRVTITCQASQDITNYLNWYQQKPGKAPKLLIYAASNLETGVPSRFSGSGSGTDFTFTISGLQPEDIATYYCQQYDNLPLTFGGGTKVEIKR
On to B3, for which the “Pseudovirus Neutralization (IC50, nM)” value in test [2] was found to be 0.05 nM. In test [3], the “%-inhibition EC50 (M), pseudovirus neutralization” value was 1.1e-10 M and the “RLU EC50 (M), pseudovirus neutralization” value is 1e-10 M.

B4: REGN10987 (Imdevimab) (antibody, V domains shown)
VH: QVQLVESGGGVVQPGRSLRLSCAASGFTFSNYAMYWVRQAPGKGLEWVAVISYDGSNKYYADSVKGRFTISRDNSKNTLYLQMNSLRTEDTAVYYCASGSDYGDYLLVYWGQGTLVTVSS
VL: QSALTQPASVSGSPGQSITISCTGTSSDVGGYNYVSWYQQHPGKAPKLMIYDVSKRPSGVSNRFSGSKSGNTASLTISGLQSEDEADYYCNSLTSISTWVFGGGTKLTVLR
Turning to B4, the “Pseudovirus Neutralization (IC50, nM)” value in test [2] is 4.76 nM. Also, in test [3], the “%-inhibition EC50 (M), pseudovirus neutralization” value was 2.9e-09 M; the “Bmax (% inhibition)” value worked out at 116%; the “RLU EC50 (M), pseudovirus neutralization” value is 2.9e-09 M.
